# From patent US20190375831A1
# Columns and labels:
# [1] = target: recombinant PfCSP (rPfCSP, residues 21-375) (Plasmodium falciparum) (UniProt P19597); test: ELISA on coated rPfCSP, OD405nm
# [2] = target: recombinant PfCSP (rPfCSP, residues 21-375) (Plasmodium falciparum) (UniProt P19597); test: biolayer interferometry, biotinylated CSP on the sensor, whole IgG in solution; apparent KD
# [3] = target: recombinant PfCSP (rPfCSP, residues 21-375) (Plasmodium falciparum) (UniProt P19597)
# Sequence of recombinant PfCSP (rPfCSP, residues 21-375) (Plasmodium falciparum) (P19597 21-375): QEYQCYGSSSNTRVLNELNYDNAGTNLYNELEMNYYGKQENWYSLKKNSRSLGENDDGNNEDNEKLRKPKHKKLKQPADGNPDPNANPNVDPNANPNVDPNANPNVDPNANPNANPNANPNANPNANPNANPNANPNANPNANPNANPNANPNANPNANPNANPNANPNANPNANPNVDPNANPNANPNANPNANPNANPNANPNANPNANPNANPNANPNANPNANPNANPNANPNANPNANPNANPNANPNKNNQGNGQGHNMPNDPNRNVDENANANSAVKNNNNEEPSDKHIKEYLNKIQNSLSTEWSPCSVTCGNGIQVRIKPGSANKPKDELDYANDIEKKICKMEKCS
Substance,EC50 (read off the curve) [1],Kd [2],-TΔS1 [3],-TΔS2 [3],N1 (stoichiometry) [3],N2 (stoichiometry) [3],ΔH1 [3],ΔH2 [3]
mAb2A10 (antibody),0.04 µg/mL,150 pM,,,,,,
mAb CIS43 (antibody),0.003 µg/mL,910 pM,8.4 kcal/mol,0.1 kcal/mol,1.2,5.1,-19.5 kcal/mol,-10.2 kcal/mol
